Test results: patent US10533231B2, “Artificial bioluminescent enzyme” (NATIONAL INSTITUTE OF ADVANCED INDUSTRIAL SCIENCE AND …, priority 2012, dated 2020)
Entries after “also recorded” stand apart in the source; their conditions may differ.

Key:
[1] = test system: artificial luciferase (ALuc); test: Effects of heavy metal ions as additive for assay buffer (Example 2-3); assay type: cell-based; details: 1 ppm in HBSS buffer after C3 lysis
Description: This example examined the effects of a heavy metal ion as an additive for an assay buffer (FIG. 25). […] After 16-hour incubation in a CO2 incubator, 50 μL of a C3 solution was added to each well to allow for cell lysis for 20 minutes. 1 ppm of each type of heavy metal ion shown in FIG. 25 and 50 μL of a substrate-containing HBSS buffer were added to the lysate simultaneously, and the relative luminescence intensities were immediately measured with an LAS-4000. After the substrate-containing assay buffer was further added, the luminescence at the 8- and 16-minute point was measured to examine the luminescence stability.

COS-7 cells [2] = test: Enzymatic activity confirmation of ALuc (section 3-1, 3-2); assay type: cell-based, African monkey; details: vs conventional copepod luciferases
Description: First, using a known lipid reagent for gene introduction, an expression vector encoding ALuc is introduced into African monkey-derived COS-7 cells; as a control, an expression vector having a known GLuc without any mutation into the cells is also introduced in the same manner. At a predetermined time (from 10 to 20 hours, for example, 16 hours) after the introduction of the vector, a cell lysate is prepared using a known lysis reagent.
Thereafter, the cell lysate is mixed with a known substrate solution containing coelenterazine, and its color intensity, temporal stability in luminescence, etc., are measured.
The luminescence intensity may be found by measuring the intensity at a specific wavelength using a known luminescence spectrophotometer after addition of a known substrate. By performing the measurement every minute, the temporal stability in luminescence can be evaluated. To measure a shift to a longer wavelength, scanning of the entire wavelength is necessary.

[3] = Prolonged activity stability of ALucs secreted in medium (Example 1-19); assay type: physicochemical; details: Day 0 to Day 25
Description: The prolonged activity stability of the artificial luciferases (ALucs) developed in the present invention was examined. First, a plasmid expressing each artificial luciferase (ALuc16, ALuc22, ALuc23, ALuc24, ALuc25, and ALuc30) (in the figure, each is referred to as A16, A22, A23, A24, A25, and A30) was introduced into COS-7 cells, and then culturing was continued for 24 hours. By the culturing, each artificial luciferase was secreted into the medium. The artificial luciferase secreted in the medium was collected, and a difference in enzymatic activity was measured under the same conditions in the following manner. On the first day (Day 0), 50 μL of assay solution (containing native coelenterazine, produced by Promega) was added to 5 μL of each medium, and the luminescence value (enzymatic activity) was measured using an LAS-4000 (produced by FujiFilm). In the same manner, the luminescence value on Day 8, Day 16, and Day 25 was compared with the luminescence value on Day 0 (FIG. 19 (A)).

[4] = Temporal change in luminescence after substrate injection, medium 25 days after expression (Example 1-19); assay type: biochemical; details: for temporal change of luminescence after substrate injection: medium 25 days after expression
Description: 50 μL of an assay solution (containing native coelenterazine, produced by Promega) was added to 5 μL of each medium 25 days after the expression, and the luminescence value (enzymatic activity) was measured using an LAS-4000 (produced by FujiFilm).

COS-7 cells [5] = test: Luminescence stability of ALucs after substrate injection (Example 1-3); assay type: cell-based, African green monkey; details: Promega lysis and reaction solution
Description: The luminescence stability of the artificial luciferases (ALucs) of the present invention was examined in various respects (FIG. 3). COS-7 cells containing each luciferase gene were cultured for 9 hours, and treated with a cell lysis solution produced by Promega for 20 minutes. Temporal changes in luciferase luminescence intensity after the introduction of a substrate-containing reaction solution produced by Promega were observed every five minutes (FIG. 3A).
This experiment was expanded to artificial luciferases ALuc16 to ALuc25 (FIG. 3BC).

COS-7 cells [6] = test: Comparison of luminescence intensity of ALucs (Example 1-2); assay type: cell-based, African green monkey; details: COS-7 cultured overnight, Promega assay solution, LAS-4000
Description: The artificial luciferase (ALuc) genes synthesized by the above process were subcloned into mammalian cell expression vectors (pcDNA3.1 (+)). Each expression vector was transfected with African green monkey kidney-derived COS-7 cells, and the luminescence intensity, luminescence stability, and red-shifted degree of artificial luciferases (ALucs) were compared (FIGS. 2 to 5).
First, the luminescence intensity of artificial luciferases (ALucs) was compared (FIG. 2). For the comparison, COS-7 cells containing a vector encoding each luciferase were cultured overnight, and then the relative luminescence intensity was measured by using an assay solution, which is a mixture of a cell lysis solution and a substrate, produced by Promega, and a luminescence image analyzer (LAS-4000).

[7] = Heat resistance of ALucs in lysate (Example 1-4); assay type: physicochemical; details: for change of luminescence intensity by heating: 80° C. for 10 minutes
Description: The heat resistance and degree of extracellular secretion of artificial luciferases of the present invention were measured (FIG. 4). First, to measure heat resistance, COS-7 cells containing each luciferase were lysed in cell lysis solutions produced by Promega to prepare lysates. Subsequently, same samples were allowed to stand at room temperature or heated at 80° C. for 10 minutes, and changes in luminescence intensity were compared by using a (substrate-containing) reaction solution produced by Promega.

COS-7 cells [8] = test: Degree of extracellular secretion of ALucs (Example 1-4); assay type: cell-based, African green monkey; details: luminescence intensity of the medium, overnight culture
Description: Further, each luciferase (ALuc) was introduced into COS-7 cells, culturing was performed overnight, and then the amount of each luciferase (ALuc) secreted from the cells was measured based on the luminescence intensity of the medium (FIG. 4B).

COS-7 cells [9] = test: Luminescence of ALuc25 to ALuc32 in lysate and medium (Example 1-18); assay type: cell-based; details: 20 hours after plasmid introduction
Description: After the insertion of a gene encoding an enzyme sequence as mentioned above into a mammalian expression vector (pcDNA3.1 (+)), each plasmid was introduced into COS-7 cells. By the transformation of these cells, each luciferase was expressed, and some of the luciferase was secreted out of the cells and some of the luciferase retained in the cells. 20 hours after the plasmid introduction, media of the cells were sampled, and the remaining cells were lysed with a lysis buffer (lysate preparation). Immediately after 50 μL of assay solution (containing a substrate) was simultaneously added to each prepared medium (5 μL) or lysate (5 μL), the luminescence value was measured using a luminescence analyzer (LAS-4000; FujiFilm) (n=3) (FIG. 18).

## [Ni+2] [Ni(II)]
[1]
  effect of heavy metal additive on luminescence intensity: significantly decrease the luminescence intensity

## [Zn+2] [Zn(II)]
[1]
  comprehensive evaluation of luminescence intensity and stability: excellent additives

## [Cd+2] [Cd(II)]
[1]
  effect of heavy metal additive on luminescence intensity: significantly decrease the luminescence intensity

B1: ALuc24: artificial luciferase, SEQ ID NO: 27 (protein)
chain: MMGIKVLFALICFALVQANPTENKDDIDIVGVEGKFGTTDLETDLFTIVEDMNVISRDTDVDANRADRGRRGKLPGKKLPLEVLKELEANAQKAGCTRGCLICLSHIKCTAKMKKWLPGRCESWEGDKETGQGGIGEAIVDIPEIPGFKNMAPMEQFIAQVDLCADCTTGCLKGLANVKCSNLLKKWLPSRCKGFANKIQAEVDTIKGLGGS
modifications: Synthetic ALuc24
COS-7 cells [2]
  luminescence stability (general statement): remarkably stable luminescence signals
[3]
  prolonged enzymatic activity stability: maintained stable enzymatic activity until Day 25
[4]
  temporal change of luminescence after substrate injection: abrupt increase in luminescence value after 6 minutes
COS-7 cells [5]
  luminescence intensity (initial): slightly low in luminescence intensity; also recorded: relatively low luminescence intensity
  luminescence stability / sustainability after substrate injection: excellent in luminescence stability; also recorded: extremely higher luminescence sustainability than other artificial luciferases

B2: ALuc22: artificial luciferase, SEQ ID NO: 15 (protein)
chain: MMGVKLIFAVLCVAVAQANATINENFEDIDLVAIGGSFADLETDLFTIVEDMNVISRDTDVDANRGGRGRRGKLPGKKLPLEVLKELEANAQKAGCTRGCLICLSHIKCTAKMKKWLPGRCESWEGDKETGQGGIGEAIVDIPEIPGFKDLEPMEQFIAQVDLCVDCTTGCLKGLANVKCSDLLKKWLPSRCATFASKIQAQVDKIKGAGGS
modifications: Synthetic ALuc22
COS-7 cells [2]
  luminescence stability (general statement): remarkably stable luminescence signals
[3]
  prolonged enzymatic activity stability: significant decrease in enzymatic activity
COS-7 cells [6]
  luminescence intensity higher than that of conventional GLuc, Renilla luciferase and MpLuc4: about 50 folds
[7]
  change of luminescence intensity by heating: significantly decreased
[7]; 80° C. for 10 minutes vs room temperature
  reduction of luminescence intensity by heating: about 40%
COS-7 cells [8]
  extracellular secretion: low extracellular secretion
COS-7 cells [5]
  luminescence intensity (initial): advantageous initial luminescence intensity
  luminescence stability / sustainability after substrate injection: decreased to about half of the original luminescence intensity after 6 minutes

B3: ALuc23: artificial luciferase, SEQ ID NO: 16 (protein)
chain: MMGIKVLFALICFALVQANPTENKDDIDIVGVEGKFGTTDLETDLFTIVEDMNVISRDTDVDANRADRGRRGKLPGKKLPLEVLKELEANAQKAGCTRGCLICLSHIKCTAKMKKWLPGRCESWEGDKETGQGGIGEAIVDIPEIPGFKELAPMEQFIAQVDLCADCTTGCLKGLANVKCSALLKKWLPSRCAGFADKIQAQVDTIKGAGGS
modifications: Synthetic ALuc23
COS-7 cells [2]
  luminescence stability (general statement): remarkably stable luminescence signals
COS-7 cells [6]
  luminescence intensity higher than that of conventional GLuc, Renilla luciferase and MpLuc4: about 50 folds
[7]
  change of luminescence intensity by heating: a remarkable reduction in luminescence intensity that may be due to heating was not observed
[4]; after long-term conservation (25 days)
  time of maximum luminescence value after infusion of coelenterazine: 12 min
[4]
  temporal change of luminescence after substrate injection: several times higher
COS-7 cells [8]
  extracellular secretion: relatively high extracellular secretion
COS-7 cells [5]
  luminescence intensity (initial): advantageous initial luminescence intensity

B4: ALuc31: artificial luciferase containing a His tag, SEQ ID NO: 33 (protein)
chain: MMGIKVLFALICFALVQANHHHHHHHHDIVGVEGKFGTTDLETDLFTIVEDMNVISRDTDVDANRADRGRRGELPGKKLPLEVLKELEANAQKAGCTRGCLICLSHIKCTAKMKKWLPGRCESWEGDKETGQGGIGEAIVDIPEIPGFKELAPMEQFIAQVDLCADCTTGCLKGLANVKCSALLKKWLPSRCAGFADKIQAQVDTIKGAGGS
modifications: His tag; Synthetic ALuc31
COS-7 cells [2]
  luminescence stability (general statement): remarkably stable luminescence signals
COS-7 cells [9]
  luminescence from cell medium: strong bioluminescence
  luminescence value from lysate: extremely higher than those of conventional GLuc and MpLuc4

B5: ALuc15: artificial luciferase, SEQ ID NO: 12 (protein)
chain: MMGIKVLFALICFALVQANPTENKDDIDIVGVEGKFGTTDLETDLFTIVEDMNVISRDTDVDANRADRGKLPGKKLPLEVLKELEANAQKAGCTRGCLICLSHIKCTAKMKKWLPGRCESWEGDKETGQGGIGEAIVDIPEIPGFKDLEPMEQFIAQVDLCVDCTTGCLKGLANVKCSDLLKKWLPSRCATFASKIQAQVDKIKGAGGS
modifications: Synthetic ALuc15
COS-7 cells [2]
  luminescence stability (general statement): remarkably stable luminescence signals
COS-7 cells [6]
  luminescence intensity higher than that of conventional GLuc, Renilla luciferase and MpLuc4: about 50 folds

B6: ALuc18: artificial luciferase, SEQ ID NO: 14 (protein)
chain: MMGIKVLFALICFALVQANPTENKDDIDIVGVEGKFGTTDLETDLFTIVEDMNVISRDTDVDANRADRGRRGHGGLPGKKMPLEVLLELEANAQRAGCTRGCLICLSKIKCTAKMKKWLPGRCESWAGDKETGQGGITEEETVDIPEIPGFKDLEPMEQFIAQVDLCVDCTTGCLKGLANVKCSDLLKKWLPSRCATFASKIQAQVDKIKGAGGS
modifications: Synthetic ALuc18
COS-7 cells [2]
  luminescence stability (general statement): remarkably stable luminescence signals
COS-7 cells [6]
  luminescence intensity higher than that of conventional GLuc, Renilla luciferase and MpLuc4: about 50 folds

B7: ALuc10: artificial luciferase, SEQ ID NO: 11 (protein)
chain: MMEIQVLFALICFALVQANPTENKDDIDIVGVEGKFGTTDLETDLFTIVEDMNVISRDTNLANSDADRGKLPGKKLPLEVLKELEANAQKAGCTRGCLICLSHIKCTAKMKKWLPGRCESWEGDKETGQGGIGEAIVDIPEIPGFKDLEPMEQFIAQVDLCVDCTTGCLKGLANVKCSDLLKKWLPSRCATFASKIQAQVDKIKGAGGS
modifications: Synthetic ALuc10
COS-7 cells [6]
  luminescence intensity higher than that of conventional GLuc, Renilla luciferase and MpLuc4: about 50 folds
